Results as given in IntAct's records for PubMed 14517307.

Molecular target: nat1_yeast NAT1 (UniProt P12945)
Sequence (P12945 whole entry): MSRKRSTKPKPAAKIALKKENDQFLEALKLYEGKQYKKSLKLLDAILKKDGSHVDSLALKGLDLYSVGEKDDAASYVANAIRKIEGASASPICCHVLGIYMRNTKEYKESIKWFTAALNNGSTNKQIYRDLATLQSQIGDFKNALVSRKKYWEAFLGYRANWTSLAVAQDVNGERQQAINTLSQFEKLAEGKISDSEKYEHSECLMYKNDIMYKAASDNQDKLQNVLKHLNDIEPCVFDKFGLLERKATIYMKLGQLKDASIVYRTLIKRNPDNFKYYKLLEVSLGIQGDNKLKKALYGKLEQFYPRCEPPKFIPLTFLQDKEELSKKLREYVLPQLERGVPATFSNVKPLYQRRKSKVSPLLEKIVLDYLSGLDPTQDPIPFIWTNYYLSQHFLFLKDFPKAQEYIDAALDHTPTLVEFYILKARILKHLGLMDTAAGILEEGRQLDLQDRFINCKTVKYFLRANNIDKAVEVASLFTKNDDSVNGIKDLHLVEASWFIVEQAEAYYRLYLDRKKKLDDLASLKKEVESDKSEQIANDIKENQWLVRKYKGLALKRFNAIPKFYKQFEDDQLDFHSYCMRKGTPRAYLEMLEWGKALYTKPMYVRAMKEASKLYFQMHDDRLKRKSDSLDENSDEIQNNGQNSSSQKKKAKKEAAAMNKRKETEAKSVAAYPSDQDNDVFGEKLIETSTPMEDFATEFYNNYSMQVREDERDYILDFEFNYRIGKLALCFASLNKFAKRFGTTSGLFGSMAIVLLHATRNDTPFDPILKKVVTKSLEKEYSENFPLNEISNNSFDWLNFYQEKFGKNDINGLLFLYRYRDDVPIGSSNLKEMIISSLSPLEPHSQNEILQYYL

Chain of Large ribosomal subunit protein uL4A (Saccharomyces cerevisiae), P10664 S2K (P10664 whole entry S2K): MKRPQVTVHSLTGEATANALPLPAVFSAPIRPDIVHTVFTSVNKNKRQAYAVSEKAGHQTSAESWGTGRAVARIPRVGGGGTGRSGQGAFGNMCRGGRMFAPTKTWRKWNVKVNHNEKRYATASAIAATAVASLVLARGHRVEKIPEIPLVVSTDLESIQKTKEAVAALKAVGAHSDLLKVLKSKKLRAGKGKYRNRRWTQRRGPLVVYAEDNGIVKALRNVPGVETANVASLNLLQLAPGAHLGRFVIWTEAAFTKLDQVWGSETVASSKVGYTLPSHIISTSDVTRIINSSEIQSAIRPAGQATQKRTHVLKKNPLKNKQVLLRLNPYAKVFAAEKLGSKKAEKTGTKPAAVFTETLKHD

- effect of a mutation on the interaction: increasing interaction
Substance: Large ribosomal subunit protein uL4A (Saccharomyces cerevisiae), P10664 S2K
